The record followed here is article doi:10.1101/2021.03.19.436221.

The experiment deals with ALX301 (human). Briefly: SPR.

B1: mouse CD47 (natural protein)
chain: QLLFSNVNSIEFTSCNETVVIPCIVRNVEAQSTEEMFVKWKLNKSYIFIYDGNKNSTTTDQNFTSAKISVSDLINGIASLKMDKRDAMVGNYTCEVTELSREGKTVIELKNRTVSWFSPNEKILIVIFPILAILLFWGKFGILTLKYKSSHTNKRIILLLVAGLVLTVIVVVGAILLIPGEKPVKNASGLGLIVISTGILILLQYNVFMTAFGMTSFTIAILITQVLGYVLALVGLCLCIMACEPVHGPLLISGLGIIALAELLGLVYMKFVASNQRTIQPPRNR
B1 had a Kd of 3.41 nM.
